Laboratory results published in PMC8657457.

Target: CyOFP1
Test: SEC; FPLC on Superdex 75 10/300 GL; elution in 20 mM Tris-HCl (pH 7.80), 200 mM NaCl; oligomeric state from the elution volume against molecular weight standards

With CyOFP1 as the substance, how does the stoichiometry N read?
The stoichiometry N was 2.
